Assays:
[1] = Stability of the entomotoxic activity (storage in dry seeds, heating)
Method: In addition, this activity is not affected by heating to 100° C.

humans or higher animals = settings: present in legumes of the conventional diet; no test described; cited from earlier work

## PAlb protein: pea albumin PA1b (SEQ ID NO: 7) described by HIGGINS et al. (ASCNGVCSPFEMPPCGTSACRCIPVGLVVGYCRNPSG)
[1]; dry seeds stored for several years
  entomotoxic/insecticidal activity after storage: conserves its insecticidal activity
[1]; heating to 100° C.
  entomotoxic/insecticidal activity after heating: not affected
Humans or higher animals
  toxicity for humans or higher animals: not toxic

— US20100263089A1, “USE OF P[…] FROM A PA1B LEGUME ALBUMEN AS INSECTICIDE” (Institut National de la Recherche Agronomique, priority 1998, published 2010)
